Measurements published in patent US20260021168A1.

B1: imlifidase (IdeS, Immunoglobulin G-degrading enzyme of S. pyogenes) (protein)
chain: DSFSANQEIRYSEVTPYHVTSVWTKGVTPPANFTQGEDVFHAPYVANQGWYDITKTFNGKDDLLCGAATAGNMLHWWFDQNKDQIKRYLEEHPEKQKINFNGEQMFDVKEAIDTKNHQLDSKLFEYFKEKAFPYLSTKHLGVFPDHVIDMFINGYRLSLTNHGPTPVKEGSKDPRGGIFDAVFTRGDQSKLLTSRHDFKEKNLKEISDLIKKELTEGKALGLSHTYANVRINHVINLWGADFDSNGNLKAIYVTDSDSNASIGMKKYFVGVNSAGKVAISAKEIKEDNIGAQVLGLFTLSTGQDSWNQTN

Tests used:
[1] = molecular target: alemtuzumab (Campath, anti-CD52, Genzyme), intact IgG; assay: cell-based or functional assay
[2] = molecular target: Thymoglobulin (Genzyme), rabbit anti-thymocyte globulin; assay: cell-based or functional assay
[3] = molecular target: ATGAM (equine Anti-thymocyte Globulin); assay: cell-based or functional assay
[4] = molecular target: endogenous human serum IgG

Molecule | block of the cytotoxic effect of alemtuzumab on CD3-positive T-cells in whole blood, flow cytometry [1] | imlifidase concentration sufficient for cleavage in whole blood (SDS-PAGE of plasma, CD3+ flow cytometry) [1] | cleavage of 50 µg/mL rATG in sera of imlifidase-treated subjects, SDS-PAGE and Western blot [2] | cytotoxic activity of ATGAM in whole blood after imlifidase treatment, CD3+ flow cytometry [3] | imlifidase concentration sufficient for cleavage in whole blood (SDS-PAGE of plasma) [4]
imlifidase (IdeS, Immunoglobulin G-degrading enzyme of S. pyogenes) | 1.9 µg/mL | 4 µg/mL | 0.5 µg/mL | > 30 µg/mL | –
B1 | – | – | – | – | a concentration of approx. 4 µg/mL imlifidase is sufficient to cleave all serum IgG and 100 µg/mL alemtuzumab
